Assay results published in article PMC6882858, “Seryl tRNA synthetase cooperates with POT1 to regulate telomere length and cellular senescence”.

B1: VEGFA promoter (dsDNA)
DNA 1: GGCGGGGCGGAGCCATGCGCCCCCCCCTTT
DNA 2: AAAGGGGGGGGCGCATGGCTCCGCCCCGCC
B2: Control random DNA (dsDNA)
DNA 1: TCGAAGTCGAAGCATGGGTCGAAGCATGGG
DNA 2: CCCATGCTTCGACCCATGCTTCGACTTCGA
B3: Telomere [TTAGGG]5 (dsDNA)
DNA 1: TTAGGGTTAGGGTTAGGGTTAGGGTTAGGG
DNA 2: CCCTAACCCTAACCCTAACCCTAACCCTAA

molecular target: SerRS (seryl-tRNA synthetase) (human, UniProt P49591 1-514); experiment: EMSA; 5 mM MgCl2, poly(dG-dC); 20 mM Tris-HCl pH 8.0, 60 mM KCl, 5 mM MgCl2, 0.1 mg/mL BSA, 10 ng/uL poly(dG-dC), 1 mM DTT, 0.8 pmol labeled DNA, 30 min, room temperature; 5% native PAGE; conditions: protein: recombinant; tags: His6 (pET20b; Ni-NTA); chain copies: 2; label: 5' 32P; blunt
Sequence (P49591 whole entry): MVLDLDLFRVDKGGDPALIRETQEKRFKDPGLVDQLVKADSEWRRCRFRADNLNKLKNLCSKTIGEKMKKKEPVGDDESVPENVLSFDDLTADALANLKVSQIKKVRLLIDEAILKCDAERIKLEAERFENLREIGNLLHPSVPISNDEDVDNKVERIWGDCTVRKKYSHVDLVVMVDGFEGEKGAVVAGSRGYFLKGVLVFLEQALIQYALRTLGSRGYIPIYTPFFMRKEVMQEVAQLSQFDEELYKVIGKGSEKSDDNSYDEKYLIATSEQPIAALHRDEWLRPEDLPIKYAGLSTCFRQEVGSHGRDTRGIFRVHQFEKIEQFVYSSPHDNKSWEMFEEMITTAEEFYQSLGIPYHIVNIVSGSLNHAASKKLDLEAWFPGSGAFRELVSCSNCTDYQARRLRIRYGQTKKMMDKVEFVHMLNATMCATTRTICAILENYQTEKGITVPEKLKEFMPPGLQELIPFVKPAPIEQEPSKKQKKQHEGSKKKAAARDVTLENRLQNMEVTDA

Binder	binding result
B1	binds
B2	no binding
B3	binds
